From patent US20220153832A1 (PIONYR IMMUNOTHERAPEUTICS, published 2022)

T1: Cynomolgus MARCO, full length, on cells (cynomolgus, UniProt A0A2K5X0Z2 1-519)
T1 construct: whole, on cells; also called cyno MARCO; CyMARCO
T1 sequence: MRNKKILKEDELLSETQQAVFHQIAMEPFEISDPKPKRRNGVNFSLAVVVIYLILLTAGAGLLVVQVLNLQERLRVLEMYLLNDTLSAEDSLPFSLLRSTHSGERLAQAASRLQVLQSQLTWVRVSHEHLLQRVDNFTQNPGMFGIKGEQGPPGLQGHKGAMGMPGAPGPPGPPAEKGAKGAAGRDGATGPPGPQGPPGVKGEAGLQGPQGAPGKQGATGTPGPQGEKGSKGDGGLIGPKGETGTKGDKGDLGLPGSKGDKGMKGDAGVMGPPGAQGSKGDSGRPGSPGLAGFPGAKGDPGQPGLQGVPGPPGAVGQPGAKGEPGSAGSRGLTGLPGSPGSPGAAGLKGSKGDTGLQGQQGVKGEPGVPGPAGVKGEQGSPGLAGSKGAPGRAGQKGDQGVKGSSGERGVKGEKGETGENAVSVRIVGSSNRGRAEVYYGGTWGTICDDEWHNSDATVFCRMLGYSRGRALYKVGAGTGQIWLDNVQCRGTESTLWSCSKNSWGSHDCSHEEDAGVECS

T2: Human Macrophage Receptor with Collagenous Structure (MARCO), full length, on cells (human, UniProt Q9UEW3 1-520)
T2 construct: the cell type is named under assay; also called huMARCO; HuMARCO
T2 sequence: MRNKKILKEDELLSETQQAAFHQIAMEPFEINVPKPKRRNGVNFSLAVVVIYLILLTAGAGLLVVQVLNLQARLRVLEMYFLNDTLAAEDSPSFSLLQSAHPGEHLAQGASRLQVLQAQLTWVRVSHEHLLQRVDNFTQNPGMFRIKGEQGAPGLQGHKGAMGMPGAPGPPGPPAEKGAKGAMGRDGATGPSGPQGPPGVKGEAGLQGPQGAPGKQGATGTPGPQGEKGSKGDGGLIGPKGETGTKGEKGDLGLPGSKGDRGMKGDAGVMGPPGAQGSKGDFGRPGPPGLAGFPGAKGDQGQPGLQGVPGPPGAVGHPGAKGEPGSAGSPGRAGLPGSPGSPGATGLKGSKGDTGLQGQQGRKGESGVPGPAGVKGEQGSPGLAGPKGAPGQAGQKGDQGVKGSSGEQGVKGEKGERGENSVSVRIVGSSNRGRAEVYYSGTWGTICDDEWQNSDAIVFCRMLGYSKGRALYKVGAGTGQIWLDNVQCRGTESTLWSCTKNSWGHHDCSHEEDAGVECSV

T3: N-terminally polyhistidine tagged human MARCO ECD (147-520), recombinant (human, UniProt Q9UEW3 147-520)
T3 construct: also called PI-RG-3000; recombinant human MARCO; not shown: N-terminal polyhistidine tag
T3 sequence: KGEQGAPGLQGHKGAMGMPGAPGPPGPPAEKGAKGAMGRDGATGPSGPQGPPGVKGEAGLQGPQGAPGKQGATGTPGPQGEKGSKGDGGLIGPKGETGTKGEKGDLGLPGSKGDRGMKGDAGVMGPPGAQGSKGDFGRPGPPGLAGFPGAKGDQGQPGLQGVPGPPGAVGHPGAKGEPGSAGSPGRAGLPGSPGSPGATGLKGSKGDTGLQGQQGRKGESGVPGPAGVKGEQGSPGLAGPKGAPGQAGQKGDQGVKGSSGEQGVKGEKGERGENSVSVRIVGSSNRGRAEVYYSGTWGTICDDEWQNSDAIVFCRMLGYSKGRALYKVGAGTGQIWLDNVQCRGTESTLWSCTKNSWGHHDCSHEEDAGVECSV


Tests used:
[1] = biological target: T4, hVar3 (RG3036) (human, UniProt Q9UEW3 147-520); test: ELISA on recombinant hVar3 protein, A450
T4 construct: Human MARCO His-CLD-SRCR with Q452D, Y472S and K473S (already in the entry); also called recombinant human SRCR MARCO hVar3 protein

[2] = biological target: T1, Cynomolgus MARCO, full length, on cells; test: flow cytometry, 293T (CyMARCO)
Description: Supernatants were removed and cell pellets were resuspended in Ca²⁺+ and Mg²⁺+ Dulbecco's phosphate-buffered saline (D-PBS) at 1×10⁶ cells/ml. 100,000 cells/well were plated onto U-bottom 96-well plates for staining and all centrifugation steps were performed at 1500 rpm at 4° C. for 5 min and samples were kept protected from light throughout the protocol. Cells were pelleted and resuspended in 100 μl of Zombie NIR viability dye (BioLegend) prepared by diluting Zombie NIR dimethyl sulfoxide (DMSO) stock 1000-fold in D-PBS. Cells were stained by incubation for 10 min at room temperature (RT) in the dark, followed by quenching the staining reaction with the addition of 100 μl of Staining Medium (D-PBS containing 2% FBS and 2 mM ethylenediaminetetraacetic acid (EDTA). Cells were pelleted and resuspended in 100 μl of the different antibodies and hybridomas supernatants needed for screening and corresponding isotype controls in freshly prepared staining medium, such as PI-M014 and mIgG2b isotype. All mAbs were tested at the final top concentration of 100 nM (15 μg/ml) followed by an 8-point three-fold serial dilution, including 0 mg/ml control. Staining was carried out for 1 hour (hr) on ice, followed by 2 washes in Staining Medium. Cells were then pelleted and resuspended in 100 μl of allophycocyanin (APC)-conjugated goat anti-mouse IgG (Fc-specific) secondary antibody, prepared by 500-fold dilution of the antibody stocks in Staining Medium, and incubated for 30 min on ice. […] Flow cytometry data were analyzed using FlowJo software (version 10.6.1) and data were processed and further analyzed in Microsoft Excel and GraphPad Prism software (version 8). Half-maximal effective concentrations (EC₅₀) were calculated based on geometric mean fluorescence intensities (gMFI). In case when the plates were not able to be analyzed on the cytometer, cells were pelleted after the washes and fixed in 100 μl of 2% paraformaldehyde (PFA), prepared by diluting the 16% (w/v) stock (Thermo Fisher) in DPBS, for 15 min at RT. […]

[3] = biological target: T2, Human Macrophage Receptor with …; test: flow cytometry, 293T (HuMARCO)
Description: Supernatants were removed and cell pellets were resuspended in Ca²⁺+ and Mg²⁺+ Dulbecco's phosphate-buffered saline (D-PBS) at 1×10⁶ cells/ml. 100,000 cells/well were plated onto U-bottom 96-well plates for staining and all centrifugation steps were performed at 1500 rpm at 4° C. for 5 min and samples were kept protected from light throughout the protocol. Cells were pelleted and resuspended in 100 μl of Zombie NIR viability dye (BioLegend) prepared by diluting Zombie NIR dimethyl sulfoxide (DMSO) stock 1000-fold in D-PBS. Cells were stained by incubation for 10 min at room temperature (RT) in the dark, followed by quenching the staining reaction with the addition of 100 μl of Staining Medium (D-PBS containing 2% FBS and 2 mM ethylenediaminetetraacetic acid (EDTA). Cells were pelleted and resuspended in 100 μl of the different antibodies and hybridomas supernatants needed for screening and corresponding isotype controls in freshly prepared staining medium, such as PI-M014 and mIgG2b isotype. All mAbs were tested at the final top concentration of 100 nM (15 μg/ml) followed by an 8-point three-fold serial dilution, including 0 mg/ml control. Staining was carried out for 1 hour (hr) on ice, followed by 2 washes in Staining Medium. Cells were then pelleted and resuspended in 100 μl of allophycocyanin (APC)-conjugated goat anti-mouse IgG (Fc-specific) secondary antibody, prepared by 500-fold dilution of the antibody stocks in Staining Medium, and incubated for 30 min on ice. Plates were then washed two times with Staining Medium, followed by resuspension in 150 μl of the same buffer for acquisition on the flow cytometer (Attune NxT, Life Technologies). Flow cytometry data were analyzed using FlowJo software (version 10.6.1) and data were processed and further analyzed in Microsoft Excel and GraphPad Prism software (version 8). Half-maximal effective concentrations (EC₅₀) were calculated based on geometric mean fluorescence intensities (gMFI). In case when the plates were not able to be analyzed on the cytometer, cells were pelleted after the washes and fixed in 100 μl of 2% paraformaldehyde (PFA), prepared by diluting the 16% (w/v) stock (Thermo Fisher) in DPBS, for 15 min at RT. Cells were then pelleted and the fixative was removed, followed by resuspension in 150 μl of Staining Medium and stored at 4° C. until acquisition on the flow cytometer.

[4] = biological target: T3, N-terminally polyhistidine tagged human …; test: ELISA on recombinant human MARCO, 0 mM EDTA
Description: (§1) After the plates were incubated at room temperature for 1 hour or 4° C. overnight, the plates were wash 3 times with ELISA wash buffer (PBS/0.05% TWEEN-20), then hybridoma supernatant (1:5 dilution) or purified antibody (1 ug) was diluted in DPBS/Ca2+/2% FBS, DPBS without Ca2+/2 mM EDTA/2% FBS, DPBS without Ca2+/10 mM EDTA/2% FBS, and DPBS without Ca2+/50 mM EDTA/2% FBS. Plates again were incubated at room temperature for 1 hour.

[5] = biological target: T3, N-terminally polyhistidine tagged human …; test: ELISA on recombinant human MARCO, 2 mM EDTA
Description: as §1

[6] = biological target: T3, N-terminally polyhistidine tagged human …; test: ELISA on recombinant human MARCO, 10 mM EDTA
Description: as §1

[7] = biological target: T3, N-terminally polyhistidine tagged human …; test: ELISA on recombinant human MARCO, 50 mM EDTA
Description: as §1

[8] = biological target: T3, N-terminally polyhistidine tagged human …; test: label-free kinetics (ProbeLife Gator), mAb captured, human MARCO
Description: The kinetics assay used either anti-mouse Fc or anti-human Fc probes to capture the anti-MARCO antibodies onto the probe, and then a five-step kinetic protocol was used to measure the affinity of the antibodies to the antigen, including the following steps: baseline, loading, baseline, association, and dissociation. The kinetics buffer (K buffer) provided by ProbeLife was used to establish the baseline for 60 seconds, and then the anti-mFc or anti-hFc probes were loaded with 200 nM of the antibodies for 120s until the capture reached saturation, measurement of the baseline in K buffer was performed for another 60s, followed by the association step using 200 nM antigen (human MARCO, mouse MARCO or cyno MARCO), and the dissociation step performed in K buffer for 5-10 minutes. The assay was done at 37° C. to maximize antibody:antigen dissociation.
Kinetics and epitope binning analysis of the newly generated anti-human MARCO antibodies was performed as described in Example 3.

binding result [1] | EC50 [2] | EC50 [3] | ELISA signal (A450) [4] | ELISA signal (A450) [5] | ELISA signal (A450) [6] | ELISA signal (A450) [7] | koff [8] | kon [8] | Binder
binds | – | – | – | – | – | – | – | – | PI-3019-AB (antibody, mouse IgG2a, kappa) heavy: EVQLVESGGGLVQPGSSLKLSCVASKFTFSNYGMNWIRQAPKKGLEWIALIYYNSNNKYYADSVKGRFTISRDNSKNTLYLEMNSLRSEDTAMYYCAKSLTGGSDYFDSWGQGVMVTVSSAKTTAPSVYPLAPVCGDTTGSSVTLGCLVKGYFPEPVTLTWNSGSLSSGVHTFPAVLQSDLYTLSSSVTVTSSTWPSQSITCNVAHPASSTKVDKKIEPRGPTIKPCPPCKCPAPNLLGGPSVFIFPPKIKDVLMISLSPIVTCVVVDVSEDDPDVQISWFVNNVEVHTAQTQTHREDYNSTLRVVSALPIQHQDWMSGKEFKCKVNNKDLPAPIERTISKPKGSVRAPQVYVLPPPEEEMTKKQVTLTCMVTDFMPEDIYVEWTNNGKTELNYKNTEPVLDSDGSYFMYSKLRVEKKNWVERNSYSCSVVHEGLHNHHTTKSFSRTPGK light: DVQMTQSPSYLAASPGESVSISCKASKSIGTFLAWYQEKPEKTNKLLIYSGSTLQSGTPSRFSGSGSGTDFTLTIRNLEPEDFAVYYCQQHDEYPFTFGSGTKLEIKRADAAPTVSIFPPSSEQLTSGGASVVCFLNNFYPKDINVKWKIDGSERQNGVLNSWTDQDSKDSTYSMSSTLTLTKDEYERHNSYTCEATHKTSTSPIVKSFNRNEC
– | 0.094 nM | 0.096 nM | 1.17 | 0.0636 | 0.0811 | 0.082 | 0.000914 s⁻¹ | 401000 M⁻¹ s⁻¹ | PI-HX-3011 (antibody, rat IgG2a, Parental rat hybridoma, rat IgG2a) heavy: QIQLVQSGPELKKPGESVKISCKASGYTFTDYAVNWVKQAPGNGLKWMGWINTQTGKPTYADDFKQRFVFSLETSASTSFLQINNLNIEDTATYFCTRDSYYYSSSLDYWGQGVMVTVSSAETTAPSVYPLAPGTALKSNSMVTLGCLVKGYFPEPVTVTWNSGALSSGVHTFPAVLQSGLYTLTSSVTVPSSTWSSQAVTCNVAHPASSTKVDKKIVPRECNPCGCTGSEVSSVFIFPPKTKDVLTITLTPKVTCVVVDISQNDPEVRFSWFIDDVEVHTAQTHAPEKQSNSTLRSVSELPIVHRDWLNGKTFKCKVNSGAFPAPIEKSISKPEGTPRGPQVYTMAPPKEEMTQSQVSITCMVKGFYPPDIYTEWKMNGQPQENYKNTPPTMDTDGSYFLYSKLNVKKETWQQGNTFTCSVLHEGLHNHHTEKSLSHSP light: DIQMTQSPASLSASLGETVSIECLASAGISNDLAWYQQKSGKSPQLLIYAASRLQDGVPSRFSGSGSGTRFSLKISDMQPEDEADYFCQQSYKYPWTFGGGTKLELKRADAAPTVSIFPPSTEQLATGGASVVCLMNNFYPRDISVKWKIDGTERRDGVLDSVTDQDSKDSTYSMSSTLSLTKADYESHNLYTCEVVHKTSSSPVVKSFNRNEC
